Assay results: patent US20260071182A1 (GAIA BIOMEDICINE, published 2026)

T1: Biotinylated Human 2B4/CD244/SLAMF4 Protein, Fc, Avitag (2B4-H82F0) (human) (UniProt Q9BZW8)
T1 sequence (biotinylated (Avitag), looked up): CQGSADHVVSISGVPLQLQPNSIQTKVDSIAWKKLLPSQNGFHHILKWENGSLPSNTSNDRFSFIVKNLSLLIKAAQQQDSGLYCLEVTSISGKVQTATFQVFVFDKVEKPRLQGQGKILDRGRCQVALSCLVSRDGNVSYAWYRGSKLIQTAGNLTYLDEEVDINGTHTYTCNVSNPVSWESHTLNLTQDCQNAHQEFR

T2: Biotinylated Human 2B4/CD244/SLAMF4 Protein, Fc, Avitag (2B4-H82F0) (human, UniProt Q9BZW8-2 22-221, biotinylated (Avitag))
T2 construct: Bought from ACROBiosystems, catalog 2B4-H82F0; not shown: Fc and Avitag of the purchased protein
T2 sequence (looked up): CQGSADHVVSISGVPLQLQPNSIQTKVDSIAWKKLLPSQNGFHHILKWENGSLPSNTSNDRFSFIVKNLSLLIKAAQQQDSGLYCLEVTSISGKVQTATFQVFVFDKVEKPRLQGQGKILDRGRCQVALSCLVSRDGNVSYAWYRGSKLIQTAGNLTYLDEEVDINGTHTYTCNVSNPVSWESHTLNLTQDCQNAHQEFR

T3: Human NKp30/NCR3/CD337 Protein, Fc Tag (NC3-H5259) (human, UniProt O14931 19-135)
T3 construct: Bought from ACROBiosystems, catalog NC3-H5259; not shown: Fc tag of the purchased protein
T3 sequence (looked up): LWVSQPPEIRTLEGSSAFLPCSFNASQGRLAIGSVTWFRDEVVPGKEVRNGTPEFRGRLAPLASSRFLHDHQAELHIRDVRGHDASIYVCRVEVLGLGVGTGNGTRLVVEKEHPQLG


Assays:
Test in all cases: BLI (Octet RED96), target on sensor, monobody in five 2-fold dilutions
[1] = target: T1, Biotinylated Human 2B4/CD244/SLAMF4 Protein, Fc, Avitag (2B4-H82F0) (human)
[2] = target: T4, Biotinylated Human NKp46/NCR/CD335 Protein, Fc, Avitag (NC1-H82F9) (human, UniProt O76036 22-255, biotinylated (Avitag))
T4 construct: Bought from ACROBiosystems, catalog NC1-H82F9; not shown: Fc and Avitag of the purchased protein
Procedure: (§1) The binding abilities and specificities were examined by using an Octet® RED96 (ForteBio) with bio-layer interferometry. Measurement was performed with the following program: Dip for 50 seconds, Load for x seconds (until a signal of 1.0 nm (NKp46, 2B4) or 0.8 nm (Nkp30) was reached), Baseline for 60 seconds, Association for 600 seconds, and Dissociation for 600 seconds. At that time, the monobody concentrations were equally set to 40 nM. The acquired data were analyzed with ForteBio Data Analysis 10.0. Only samples for which binding ability and specificity were found were subjected to measurement of dissociation constants under different conditions. The measurement conditions are shown in a table given below. Dip, Baseline, Association, and Dissociation were performed for the same times as in examining binding ability and specificity. The monobodies were serially diluted from the highest concentration by a factor of 2 to prepare five concentrations for use in measurement.
(§2) The binding abilities and specificities of all the clones expressed and purified in Example 3 were examined, and the values of dissociation constants were measured. FIGS. 5 to 7 show the measurement results. In the top graphs in each of FIGS. 5 to 7, upper lines show results of measurement of the binding abilities of the monobodies with binding of a target to the tip of the sensor, and lower lines show results of examination on whether a monobody was bound only to the sensor without binding of a target to the sensor. Mb in the graphs is an abbreviation for monobody concentration. For any of the clones, the monobody was bound to the sensor when a target was fixed on the sensor, and no binding was found when a target was not fixed on the sensor. The bottom graphs in each of FIGS. 5 to 7 show results of measurement of dissociation constants for five concentrations.

[3] = target: T2, Biotinylated Human 2B4/CD244/SLAMF4 …
Procedure: as §1, §2

[4] = target: T3, Human NKp30/NCR3/CD337 Protein, Fc Tag …
Procedure: as §1, §2

T4 sequence (O76036 22-255): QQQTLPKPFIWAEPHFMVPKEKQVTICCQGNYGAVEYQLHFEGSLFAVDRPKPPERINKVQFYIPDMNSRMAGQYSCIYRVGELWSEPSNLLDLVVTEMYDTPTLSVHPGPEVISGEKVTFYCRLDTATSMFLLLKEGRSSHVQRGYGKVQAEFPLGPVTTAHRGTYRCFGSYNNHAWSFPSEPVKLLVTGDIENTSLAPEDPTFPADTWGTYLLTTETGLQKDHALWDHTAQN

Binder | Kd [2] [pM] | koff [2] [s⁻¹] | kon [2] [M⁻¹ s⁻¹] | Kd [4] [pM] | koff [4] [s⁻¹] | kon [4] [M⁻¹ s⁻¹] | also measured
Mb-2B4-BC-2 (designed binder, part only; not given: N-terminal start, linker, sortase site, tag, not shown: small tags and cut ends) chain, part: LEVVEASPTSIQISWDAQAYWFEYTWWVRYYRITYGETGGNSPVQEFTVPGSKSTATISGLKPGVDYTITVYAVTLEWVYDDQWTSGPISINYRTEIDKPSQ | – | – | – | – | – | – | Kd [1]: 1000 pM; koff [1]: 9.3e-05 s⁻¹; kon [1]: 92000 M⁻¹ s⁻¹
Mb-NKp46-CD-1 (designed binder, Monobody on human fibronectin type III domain scaffold, CD-FG library; also called NKp46 CD-FG No. 1; not shown: N-terminal residues of the expression construct (X7n7; the library has MPNR), linker, Sortase A recognition site and His tag) LEVVEASPTSIQISWDAPAVTVRYYDIYYGETGPGYYMWQRGVINVQAFTVPGSKSTATISGLKPGVDYTITVYAVTGQERAYGHPEHFPISINYRTEIDKPSQ | 140 | 7.2e-05 | 530000 | – | – | – | –
Mb-NKp46-CD-3 (designed binder, Monobody on human fibronectin type III domain scaffold, CD-FG library; also called NKp46 CD-FG No. 3; not shown: N-terminal residues of the expression construct (X7n7; the library has MPNR), linker, Sortase A recognition site and His tag) LEVVEASPTSIQISWDAPAVTVRYYVISYGETGRYKYHRRINVQGFTVPGSKSTATISGLKPGVDYTITVYAVTGTQWYVFNEAGDVAGYPISINYRTEIDKPSQ | 980 | 7e-05 | 72000 | – | – | – | –
Mb-2B4-CD-1 (designed binder, Monobody on human fibronectin type III domain scaffold, CD-FG library; also called 2B4 CD-FG No. 1; not shown: Sortase A recognition site, His tag and any linker (X8n8) at the C terminus; MPNR in the library) LEVVEASPTSIQISWDAPAVTVRYYGIYYGETGTSPWVYNGYVQEFTVPGSKSTATISGLKPGVDYTITVYAVTDQYKSWNLEEFHPISINYRTEIDKPSQ | – | – | – | – | – | – | Kd [3]: 2800 pM; koff [3]: 0.0002 s⁻¹; kon [3]: 71000 M⁻¹ s⁻¹
Mb-2B4-CD-3 (designed binder, Monobody on human fibronectin type III domain scaffold, CD-FG library; also called 2B4 CD-FG No. 3; not shown: Sortase A recognition site, His tag and any linker (X8n8) at the C terminus; MPNR in the library) LEVVEASPTSIQISWDAPAVTVRYYEILYGETGTPPWIHKGWVQYFTVPGSKSTATISGLKPGVDYTITVYAVTVTPYGRKWVGMNGWPISINYRTEIDKPSQ | – | – | – | – | – | – | Kd [3]: 1500 pM; koff [3]: 0.00035 s⁻¹; kon [3]: 230000 M⁻¹ s⁻¹
Mb-NKp30-BC-2 (designed binder, Monobody on human fibronectin type III domain scaffold, BC-FG library; also called NKp30 BC-FG No. 2; not shown: N-terminal residues of the expression construct (X7n7; the library has MPNR), linker, Sortase A recognition site and His tag) LEVVEASPTSIQISWDALWHYYGDQYWVRYYRITYGETGGNSPVQEFTVPGSKSTATISGLKPGVDYTITVYAVTWMYVPEYYFNPWPISINYRTEIDKPSQ | – | – | – | 38 | 2.7e-05 | 720000 | –
Mb-NKp30-BC-6 (designed binder, Monobody on human fibronectin type III domain scaffold, BC-FG library; also called NKp30 BC-FG No. 6; not shown: N-terminal residues of the expression construct (X7n7; the library has MPNR), linker, Sortase A recognition site and His tag) LEVVEASPTSIQISWDATDRNYDITYGMQVRYYRITYGETGGNSPVQEFTVPGSKSTATISGLKPGVDYTITVYAVTYWWDGYSYSEEAWYYPISINYRTEIDKPSQ | – | – | – | 270 | 0.00024 | 900000 | –
Mb-NKp30-CD-9 (designed binder, Monobody on human fibronectin type III domain scaffold, CD-FG library; also called NKp30 CD-FG No. 9; not shown: N-terminal residues of the expression construct (X7n7; the library has MPNR), linker, Sortase A recognition site and His tag) LEVVEASPTSIQISWDAPAVTVRYYVITYGETGWSWESYWHGTYVQQFTVPGSKSTATISGLKPGVDYTITVYAVTTFMKDIPSYYPISINYRTEIDKPSQ | – | – | – | 350 | 0.00029 | 810000 | –
Mb-NKp46-BC-2 (designed binder, Monobody on human fibronectin type III domain scaffold, BC-FG library; also called NKp46 BC-FG No. 2; not shown: N-terminal residues of the expression construct (X7n7; the library has MPNR), linker, Sortase A recognition site and His tag) LEVVEASPTSIQISWDAWTWLGYEYYWVRYYRITYGETGGNSPVQEFTVPGSKSTATISGLKPGVDYTITVYAVTWDSKPGAIGIPISINYRTEIDKPSQ | 1200 | 0.00047 | 380000 | – | – | – | –
Mb-NKp46-BC-3 (designed binder, Monobody on human fibronectin type III domain scaffold, BC-FG library; also called NKp46 BC-FG No. 3; not shown: N-terminal residues of the expression construct (X7n7; the library has MPNR), linker, Sortase A recognition site and His tag) LEVVEASPTSIQISWDATYWDWGFRVRYYRITYGETGGNSPVQEFTVPGSKSTATISGLKPGVDYTITVYAVTWSWARRTHISWFPISINYRTEIDKPSQ | < 10 | < 1e-06 | 100000 | – | – | – | –
